The text below walks through data of PMC9109680.

For data set [1], the target named is photosystem I (PSI) reaction center (Synechocystis sp. PCC 6803 (endogenous in S. 6803 cells)) (UniProt P37277). Briefly: anion-exchange chromatography; DDM-solubilised thylakoid membranes (2 mg chl) on DEAE, MgSO4 gradient, 0.04% DDM; A700 peak areas of the PSI trimer and PSI monomer fractions; cells grown under increased photon flux (FL); WT and ORR1 strains.

For data set [2] the target is unchanged. Briefly: anion-exchange chromatography; DDM-solubilised thylakoid membranes (2 mg chl) on DEAE, MgSO4 gradient, 0.04% DDM; A700 peak areas of the PSI trimer and PSI monomer fractions; cells grown under standard conditions (GL); WT and ORR1 strains.
Data set [3] has the same target. Briefly: native gel or EMSA; BN-PAGE, 4-16% Bis/Tris gels, of PSI fractions isolated by anion-exchange chromatography (or sucrose gradients), 0.04% DDM; bands compared to literature; WT and ORR1 cells, GL or FL.
Data set [4] deals with P37277. As to the kind of experiment: anion-exchange chromatography; DDM-solubilised thylakoid membranes (2 mg chl) on DEAE, MgSO4 gradient, 0.04% DDM; A700 peak areas of the PSI trimer and PSI monomer fractions; cells grown under increased photon flux (FL); WT and ORR1 strains. The following applies: other: anion-exchange chromatography.
Data set [5] relates to P37277. As to the kind of experiment: anion-exchange chromatography; DDM-solubilised thylakoid membranes (2 mg chl) on DEAE, MgSO4 gradient, 0.04% DDM; A700 peak areas of the PSI trimer and PSI monomer fractions; cells grown under standard conditions (GL); WT and ORR1 strains. As to conditions: other: anion-exchange chromatography.

Sequence of photosystem I (PSI) reaction center (P37277 whole entry, looked up): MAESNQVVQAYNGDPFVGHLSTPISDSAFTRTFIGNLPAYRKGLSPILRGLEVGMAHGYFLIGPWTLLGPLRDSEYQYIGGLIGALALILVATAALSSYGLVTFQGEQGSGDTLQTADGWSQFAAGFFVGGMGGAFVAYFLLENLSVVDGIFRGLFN

As usually defined, the stoichiometry N is a count of units in the complex or per binding partner. In data set [1], “photosystem I (PSI) reaction center (from UniProt P37277 1-157) (complex)” returned a Monomer : trimer (A700 peak areas), ORR1 strain of 0.53; a Monomer : trimer (A700 peak areas), WT strain of 0.11; a Trimer : monomer (A700 peak areas), ORR1 strain of 2; a Trimer : monomer (A700 peak areas), WT strain of 9.2. Moreover, in data set [2], the Monomer : trimer (A700 peak areas), ORR1 strain stood at 0.23; the Monomer : trimer (A700 peak areas), WT strain amounted to 0.17; the Trimer : monomer (A700 peak areas), ORR1 strain was 4.6; the Trimer : monomer (A700 peak areas), WT strain was 6.3. Moreover, the stoichiometry N in data set [3] came to 3.

In data set [4], photosystem I (PSI) reaction center had a Monomer (% of total PSI), ORR1 strain (% of total PSI) of 34 and a Monomer (% of total PSI), WT strain (% of total PSI) of 10. In data set [5], this substance had a Monomer (% of total PSI), ORR1 strain (% of total PSI) of 18 and a Monomer (% of total PSI), WT strain (% of total PSI) of 14.
